Measurements published in the supplement of paper PMC10126150.
± gives the standard deviation of the averaged measurements.

Test system: ATP
Assay: switch fluorescence ratio, 500 uM ATP over buffer (Cy3 cluster intensity, sum of 5 cycles each) (fold (ratio)); higher = stronger signal-on switching upon ATP binding; sequences stand for … in TCGTCGGCAGCGTCAGATGTGTATAAGAGACAGTTTTTTTTTTTTTTTTTTTTTTTTT…TC
Settings: aptamer strand: ATP DNA aptamer (quencher-CACCTGGGGGAGTATTGCGGAGGAAGG + anchor), 100 nM annealed; ATP concentration: 500 uM
In short: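 The fluorescence ratio divides summed target-cycle Cy3 intensity by summed buffer-cycle Cy3 intensity for each cluster and is averaged per switch-domain sequence. Cy3-labelled switching-strand clusters on a modified Illumina MiSeq flow-cell were annealed to 100 nM quencher-labelled ATP aptamer, then imaged in selection buffer and again after 15 min with 500 uM ATP at 22 °C. Five such cycles were run, with NaOH stripping and re-annealing between them, and clusters outside 100-1000 RFU were excluded.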
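Note: ATP exposure 15 min at 22 °C before imaging.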

TGTTCGGTGT
switch fluorescence ratio: 1.008 ± 0.0049

TGTTCTAGTT
switch fluorescence ratio: 1.01 ± 0.015

TGTTCTTATA
switch fluorescence ratio: 0.993 ± 0.026

TGTTGAAATT
switch fluorescence ratio: 1.03 ± 0.077

TGTTGAAGGG
switch fluorescence ratio: 1.01 ± 0.014

TGTTGAGGCG
switch fluorescence ratio: 0.981 ± 0.015

TGTTGAGTTT
switch fluorescence ratio: 0.994 ± 0.027

TGTTGATCAG
switch fluorescence ratio: 0.982 ± 0.03

TGTTGCAGTT
switch fluorescence ratio: 1.03 ± 0.02

TGTTGCCAAT
switch fluorescence ratio: 1.01 ± 0.029

TGTTGCGCTT
switch fluorescence ratio: 1.033 ± 0.007

TGTTGCGGGG
switch fluorescence ratio: 0.995 ± 0.038

TGTTGCGTTA
switch fluorescence ratio: 0.985 ± 0.021

TGTTGCTGGA
switch fluorescence ratio: 1 ± 0.03

TGTTGGACGG
switch fluorescence ratio: 1.07 ± 0.037

TGTTGGACGT
switch fluorescence ratio: 1.036 ± 0.0024

TGTTGGAGAG
switch fluorescence ratio: 1.02 ± 0.02

TGTTGGAGGG
switch fluorescence ratio: 1.04 ± 0.027

TGTTGGAGGT
switch fluorescence ratio: 1.02 ± 0.045

TGTTGGGGAA
switch fluorescence ratio: 0.9676 ± 0.0074

TGTTGTATGT
switch fluorescence ratio: 0.994 ± 0.015

TGTTGTCGGT
switch fluorescence ratio: 0.988 ± 0.063

TGTTGTGTGG
switch fluorescence ratio: 1.02 ± 0.027

TGTTGTGTGT
switch fluorescence ratio: 0.985 ± 0.028

TGTTGTTATC
switch fluorescence ratio: 0.974 ± 0.038

TGTTGTTGGG
switch fluorescence ratio: 0.9946 ± 0.0087

TGTTGTTTGA
switch fluorescence ratio: 0.991 ± 0.016

TGTTTAAAAA
switch fluorescence ratio: 0.987 ± 0.025

TGTTTAAACG
switch fluorescence ratio: 1.025 ± 0.005

TGTTTAATTC
switch fluorescence ratio: 1.3 ± 0.39

TGTTTAATTG
switch fluorescence ratio: 0.97673 ± 0.0004

TGTTTAGTTT
switch fluorescence ratio: 1.01 ± 0.033

TGTTTATAAT
switch fluorescence ratio: 0.99 ± 0.013

TGTTTATTTC
switch fluorescence ratio: 1.03 ± 0.08

TGTTTATTTG
switch fluorescence ratio: 0.965 ± 0.017

TGTTTCAAGT
switch fluorescence ratio: 0.973 ± 0.064

TGTTTCGTGG
switch fluorescence ratio: 0.971 ± 0.02

TGTTTCTAGG
switch fluorescence ratio: 0.979 ± 0.029

TGTTTCTGGT
switch fluorescence ratio: 0.969 ± 0.038

TGTTTGGGAA
switch fluorescence ratio: 1 ± 0.038

TGTTTGGGTG
switch fluorescence ratio: 1.08 ± 0.11

TGTTTGGTC
switch fluorescence ratio: 0.997 ± 0.013

TGTTTGTGAT
switch fluorescence ratio: 1.003 ± 0.0098

TGTTTTAAAT
switch fluorescence ratio: 0.978 ± 0.03

TGTTTTAAGG
switch fluorescence ratio: 1.009 ± 0.0081

TGTTTTAGGT
switch fluorescence ratio: 1.02 ± 0.029

TGTTTTAGT
switch fluorescence ratio: 0.992 ± 0.024

TGTTTTATCT
switch fluorescence ratio: 0.9857 ± 0.0073

TGTTTTCCCT
switch fluorescence ratio: 0.979 ± 0.053

TGTTTTGCGT
switch fluorescence ratio: 1.01 ± 0.037

TGTTTTGGGA
switch fluorescence ratio: 0.997 ± 0.021

TGTTTTGGGG
switch fluorescence ratio: 0.998 ± 0.035

TGTTTTTCTA
switch fluorescence ratio: 1 ± 0.044

TGTTTTTCTG
switch fluorescence ratio: 0.968 ± 0.039

TGTTTTTGCT
switch fluorescence ratio: 0.969 ± 0.033

TGTTTTTTAG
switch fluorescence ratio: 1.01 ± 0.024

TTAAAAAAAA
switch fluorescence ratio: 1.16 ± 0.35

TTAAAAACTG
switch fluorescence ratio: 0.992 ± 0.033

TTAAAACGGT
switch fluorescence ratio: 1.21 ± 0.31

TTAAAAGCGT
switch fluorescence ratio: 1.02 ± 0.013

TTAAAAGGCT
switch fluorescence ratio: 0.9974 ± 0.0012

TTAAAAGTAG
switch fluorescence ratio: 1 ± 0.058

TTAAAAGTTT
switch fluorescence ratio: 0.994 ± 0.043

TTAAAATCGA
switch fluorescence ratio: 0.972 ± 0.072

TTAAAATCTG
switch fluorescence ratio: 1.02 ± 0.027

TTAAAATGCT
switch fluorescence ratio: 0.978 ± 0.011

TTAAAATGGT
switch fluorescence ratio: 1 ± 0.052

TTAAAATGTT
switch fluorescence ratio: 1.0072 ± 0.00057

TTAAAATTGC
switch fluorescence ratio: 1.08 ± 0.064

TTAAAATTTT
switch fluorescence ratio: 1.06 ± 0.06

TTAAACCGGT
switch fluorescence ratio: 1.03 ± 0.037

TTAAACGCGG
switch fluorescence ratio: 1.05 ± 0.066

TTAAACGCTT
switch fluorescence ratio: 1.02 ± 0.043

TTAAACGGGA
switch fluorescence ratio: 1.03 ± 0.024

TTAAACGTTT
switch fluorescence ratio: 1.02 ± 0.021

TTAAAGCCGG
switch fluorescence ratio: 0.966 ± 0.061

TTAAAGCCTT
switch fluorescence ratio: 1.03 ± 0.053

TTAAAGCGCG
switch fluorescence ratio: 1.04 ± 0.024

TTAAAGGCCC
switch fluorescence ratio: 1.0667 ± 4.6e-05

TTAAATCTCG
switch fluorescence ratio: 0.989 ± 0.046

TTAAATGGCA
switch fluorescence ratio: 0.993 ± 0.033

TTAAATTCGA
switch fluorescence ratio: 0.966 ± 0.036

TTAAATTGAT
switch fluorescence ratio: 0.987 ± 0.04

TTAAATTTT
switch fluorescence ratio: 1.01 ± 0.024

TTAAATTTTG
switch fluorescence ratio: 1.015 ± 0.0084

TTAAATTTTT
switch fluorescence ratio: 1.01 ± 0.041

TTAACAGTGG
switch fluorescence ratio: 0.989 ± 0.032

TTAACAGTTT
switch fluorescence ratio: 1.001 ± 0.0067

TTAACCGTTT
switch fluorescence ratio: 1.09 ± 0.08

TTAACCTTTT
switch fluorescence ratio: 1.36 ± 0.58

TTAACGCCGC
switch fluorescence ratio: 1.13 ± 0.069

TTAACGCGGA
switch fluorescence ratio: 1.03 ± 0.011

TTAACGGCGC
switch fluorescence ratio: 1.04 ± 0.081

TTAACGGGGT
switch fluorescence ratio: 1.04 ± 0.073

TTAACGGTAG
switch fluorescence ratio: 0.983 ± 0.038

TTAACGGTTT
switch fluorescence ratio: 0.988 ± 0.013

TTAACTCGGA
switch fluorescence ratio: 0.996 ± 0.056

TTAACTGGAA
switch fluorescence ratio: 0.978 ± 0.031

TTAACTTGTG
switch fluorescence ratio: 0.986 ± 0.031

TTAAGAGACG
switch fluorescence ratio: 1.06 ± 0.07

TTAAGATGCT
switch fluorescence ratio: 0.997 ± 0.036

TTAAGATGGT
switch fluorescence ratio: 0.983 ± 0.029

TTAAGCATGT
switch fluorescence ratio: 1.01 ± 0.017

TTAAGCCTTT
switch fluorescence ratio: 1.02 ± 0.034

TTAAGCGAAG
switch fluorescence ratio: 0.953 ± 0.029

TTAAGCGGAG
switch fluorescence ratio: 1.0092 ± 0.00077

TTAAGGATA
switch fluorescence ratio: 1.01 ± 0.036

TTAAGGCAAA
switch fluorescence ratio: 1.03 ± 0.019

TTAAGGCATT
switch fluorescence ratio: 1.06 ± 0.03

TTAAGGCTTA
switch fluorescence ratio: 1.01 ± 0.044

TTAAGGGGAC
switch fluorescence ratio: 1.04 ± 0.037

TTAAGGGGAT
switch fluorescence ratio: 1 ± 0.032

TTAAGGGGGA
switch fluorescence ratio: 1.01 ± 0.025

TTAAGGGGGT
switch fluorescence ratio: 1.03 ± 0.08

TTAAGGTTGG
switch fluorescence ratio: 0.993 ± 0.031

TTAAGTATTG
switch fluorescence ratio: 0.9956 ± 0.0079

TTAAGTGTGA
switch fluorescence ratio: 0.982 ± 0.013

TTAAGTTAGG
switch fluorescence ratio: 1.02 ± 0.012

TTAAGTTGTT
switch fluorescence ratio: 0.965 ± 0.016

TTAATAACTT
switch fluorescence ratio: 1.01 ± 0.019

TTAATAATAA
switch fluorescence ratio: 1 ± 0.034

TTAATACTTG
switch fluorescence ratio: 1.03 ± 0.018

TTAATAGGG
switch fluorescence ratio: 1 ± 0.022

TTAATAGGTG
switch fluorescence ratio: 1.14 ± 0.015

TTAATATGGA
switch fluorescence ratio: 0.999 ± 0.012

TTAATATTAC
switch fluorescence ratio: 1.01 ± 0.014

TTAATATTTG
switch fluorescence ratio: 1.01 ± 0.041

TTAATCGGTT
switch fluorescence ratio: 1.005 ± 0.01

TTAATGCGCA
switch fluorescence ratio: 1 ± 0.019

TTAATGCTGG
switch fluorescence ratio: 1 ± 0.033

TTAATGGCGA
switch fluorescence ratio: 0.986 ± 0.033

TTAATGGGGG
switch fluorescence ratio: 1.06 ± 0.25

TTAATGTGCG
switch fluorescence ratio: 1.01 ± 0.023

TTAATGTGGG
switch fluorescence ratio: 0.995 ± 0.014

TTAATTATCA
switch fluorescence ratio: 0.998 ± 0.018

TTAATTCCGT
switch fluorescence ratio: 1.02 ± 0.032

TTAATTCTGG
switch fluorescence ratio: 0.9976 ± 0.0034

TTAATTGACA
switch fluorescence ratio: 1.064 ± 0.0092

TTAATTGAGT
switch fluorescence ratio: 1.012 ± 0.0018

TTAATTGATG
switch fluorescence ratio: 1.01 ± 0.014

TTAATTGGTG
switch fluorescence ratio: 1.021 ± 0.009

TTAATTTACA
switch fluorescence ratio: 1.09 ± 0.044

TTAATTTACT
switch fluorescence ratio: 1.08 ± 0.043

TTAATTTAG
switch fluorescence ratio: 0.985 ± 0.027

TTAATTTCAG
switch fluorescence ratio: 1.01 ± 0.023

TTAATTTCTA
switch fluorescence ratio: 0.9901 ± 0.0058

TTACAAGAGG
switch fluorescence ratio: 0.989 ± 0.024

TTACACGGGG
switch fluorescence ratio: 0.969 ± 0.036

TTACAGGACG
switch fluorescence ratio: 1.2 ± 0.22

TTACAGGGCT
switch fluorescence ratio: 1.037 ± 0.0038

TTACAGGGGG
switch fluorescence ratio: 1.03 ± 0.057

TTACATAATT
switch fluorescence ratio: 1.02 ± 0.044

TTACATCTGG
switch fluorescence ratio: 0.9842 ± 0.007

TTACATGTAG
switch fluorescence ratio: 1.04 ± 0.013

TTACCAAAAC
switch fluorescence ratio: 1.41 ± 0.54

TTACCAGAGT
switch fluorescence ratio: 1.02 ± 0.011

TTACCATTCG
switch fluorescence ratio: 1.02 ± 0.019

TTACCGTGTT
switch fluorescence ratio: 1.08 ± 0.037

TTACGACGCA
switch fluorescence ratio: 3.67 ± 0.76

TTACGACTGT
switch fluorescence ratio: 1.004 ± 0.0014

TTACGAGATT
switch fluorescence ratio: 1.01 ± 0.068

TTACGAGTGG
switch fluorescence ratio: 1.02 ± 0.025

TTACGATTTT
switch fluorescence ratio: 0.993 ± 0.039

TTACGCATCA
switch fluorescence ratio: 1.14 ± 0.021

TTACGCCCTT
switch fluorescence ratio: 1.11 ± 0.08

TTACGGAACT
switch fluorescence ratio: 1.164 ± 0.0041

TTACGGAAGT
switch fluorescence ratio: 1.11 ± 0.13

TTACGGAAT
switch fluorescence ratio: 1.1 ± 0.14

TTACGGACGA
switch fluorescence ratio: 1.317 ± 0.0043

TTACGGCGCT
switch fluorescence ratio: 1.06 ± 0.062

TTACGGGGAT
switch fluorescence ratio: 1.04 ± 0.016

TTACGGGGGG
switch fluorescence ratio: 1.02 ± 0.052

TTACGGGTCC
switch fluorescence ratio: 0.961 ± 0.012

TTACGGTCCC
switch fluorescence ratio: 1.19 ± 0.24

TTACGGTCTA
switch fluorescence ratio: 1.03 ± 0.013

TTACGGTGTC
switch fluorescence ratio: 1.02 ± 0.025

TTACGGTGTT
switch fluorescence ratio: 1.1 ± 0.099

TTACGTAATA
switch fluorescence ratio: 1.34 ± 0.023

TTACGTGGGA
switch fluorescence ratio: 1.02 ± 0.026

TTACGTGTCG
switch fluorescence ratio: 1.01 ± 0.068

TTACTATTTG
switch fluorescence ratio: 0.961 ± 0.052

TTACTCATTT
switch fluorescence ratio: 1.017 ± 0.0018

TTACTGGAAC
switch fluorescence ratio: 1.06 ± 0.021

TTACTGGGGC
switch fluorescence ratio: 1.03 ± 0.03

TTACTTCTGG
switch fluorescence ratio: 0.9796 ± 0.0017

TTACTTGACT
switch fluorescence ratio: 1.116 ± 0.0085

TTACTTGGGT
switch fluorescence ratio: 1.02 ± 0.052

TTACTTTGAG
switch fluorescence ratio: 1.02 ± 0.048

TTACTTTGGA
switch fluorescence ratio: 1.03 ± 0.023

TTACTTTTTT
switch fluorescence ratio: 1.02 ± 0.033

TTAGAAAGCA
switch fluorescence ratio: 1 ± 0.033

TTAGAAAGGA
switch fluorescence ratio: 1.01 ± 0.025

TTAGAAGATT
switch fluorescence ratio: 1 ± 0.044

TTAGAAGGTG
switch fluorescence ratio: 1.16 ± 0.078

TTAGAAGGTT
switch fluorescence ratio: 1 ± 0.026

TTAGACCGAA
switch fluorescence ratio: 1.031 ± 0.0088

TTAGACGATT
switch fluorescence ratio: 0.998 ± 0.025

TTAGACGCTT
switch fluorescence ratio: 1 ± 0.011

TTAGACGGC
switch fluorescence ratio: 0.978 ± 0.097

TTAGAGAAAA
switch fluorescence ratio: 1.03 ± 0.079
